Experiments:
[1] = molecular target: T1, SSA1 (native, from EBY100 lysate) (Saccharomyces cerevisiae, UniProt P10591 2-642); experiment: co-immunoprecipitation, Nb coupled to NHS-agarose beads, EBY100 yeast lysate (native target), SDS-PAGE
T1 construct: mature; Endogenous untagged protein; also called YAL005C
Procedure: (§1) Six SSA1-specific Nanobodies (60=Nb clone CA17560 corresponding to SEQ ID NO: 19, 61=CA17561-SEQ ID NO: 20, 62=CA17562-SEQ ID NO: 21, 63=CA17563-SEQ ID NO: 22, 64=CA17564-SEQ ID NO: 23, 65=CA17565-SEQ ID NO: 24) were characterized by co-immunoprecipitation assays. Each SSA1-specific Nanobodies was covalently linked to NHS-agarose beads. The beads that were functionalized with these SSA1-specific Nanobodies were incubated for an hour at 4° C. on a rotating device with either an EBY100 lysate or the lysate of the engineered Yeast strain expressing SSA1 (Yeast GFP fusion collection reference: GFP(+)10, E4) as a GFP-tagged protein. After washing, these beads were resuspended in SDS-PAGE loading dye and analyzed on SDS-PAGE (FIG. 6A). Separated proteins were transferred to a PVDF membrane and the Western blot (FIG. 6B) was developed with GFP-specific antibody to confirm the presence of GFP-tagged SSA1.

[2] = molecular target: T2, GFP-tagged SSA1 (Saccharomyces cerevisiae, UniProt P10591 2-642); experiment: co-immunoprecipitation, Nb coupled to NHS-agarose beads, lysate of the yeast strain expressing the GFP-tagged target, SDS-PAGE
T2 construct: Yeast GFP Fusion Collection strain; also called Yeast GFP fusion collection GFP(+)10, E4; not shown: GFP tag
T2 sequence (P10591 2-642): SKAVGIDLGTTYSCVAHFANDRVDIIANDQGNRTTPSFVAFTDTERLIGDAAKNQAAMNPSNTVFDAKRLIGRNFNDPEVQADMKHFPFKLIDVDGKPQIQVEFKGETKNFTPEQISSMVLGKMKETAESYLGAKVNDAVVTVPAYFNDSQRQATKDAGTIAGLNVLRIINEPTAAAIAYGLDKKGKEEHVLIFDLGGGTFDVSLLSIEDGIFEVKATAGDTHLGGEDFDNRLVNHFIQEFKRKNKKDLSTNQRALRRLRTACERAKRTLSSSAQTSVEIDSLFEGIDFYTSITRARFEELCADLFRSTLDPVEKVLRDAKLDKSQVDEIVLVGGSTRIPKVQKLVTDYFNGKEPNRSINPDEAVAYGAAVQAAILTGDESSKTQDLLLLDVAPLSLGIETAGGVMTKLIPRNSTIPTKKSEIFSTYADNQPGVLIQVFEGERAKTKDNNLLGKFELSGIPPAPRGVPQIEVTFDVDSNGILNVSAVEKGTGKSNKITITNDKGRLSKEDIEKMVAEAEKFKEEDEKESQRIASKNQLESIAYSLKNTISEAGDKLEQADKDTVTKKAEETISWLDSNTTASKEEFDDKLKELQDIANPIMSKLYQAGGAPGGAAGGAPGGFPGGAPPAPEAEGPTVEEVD
Procedure: as §1

[3] = molecular target: T3, GFP-tagged HSP104 (Saccharomyces cerevisiae, UniProt P31539 1-908); experiment: co-immunoprecipitation, Nb coupled to NHS-agarose beads, lysate of the yeast strain expressing the GFP-tagged target, Western blot anti-GFP
T3 construct: Yeast GFP Fusion Collection strain; also called Yeast GFP fusion collection GFP(+)05, A2; YLL026W; not shown: GFP tag
T3 sequence (P31539 whole entry, the tested form may be a part): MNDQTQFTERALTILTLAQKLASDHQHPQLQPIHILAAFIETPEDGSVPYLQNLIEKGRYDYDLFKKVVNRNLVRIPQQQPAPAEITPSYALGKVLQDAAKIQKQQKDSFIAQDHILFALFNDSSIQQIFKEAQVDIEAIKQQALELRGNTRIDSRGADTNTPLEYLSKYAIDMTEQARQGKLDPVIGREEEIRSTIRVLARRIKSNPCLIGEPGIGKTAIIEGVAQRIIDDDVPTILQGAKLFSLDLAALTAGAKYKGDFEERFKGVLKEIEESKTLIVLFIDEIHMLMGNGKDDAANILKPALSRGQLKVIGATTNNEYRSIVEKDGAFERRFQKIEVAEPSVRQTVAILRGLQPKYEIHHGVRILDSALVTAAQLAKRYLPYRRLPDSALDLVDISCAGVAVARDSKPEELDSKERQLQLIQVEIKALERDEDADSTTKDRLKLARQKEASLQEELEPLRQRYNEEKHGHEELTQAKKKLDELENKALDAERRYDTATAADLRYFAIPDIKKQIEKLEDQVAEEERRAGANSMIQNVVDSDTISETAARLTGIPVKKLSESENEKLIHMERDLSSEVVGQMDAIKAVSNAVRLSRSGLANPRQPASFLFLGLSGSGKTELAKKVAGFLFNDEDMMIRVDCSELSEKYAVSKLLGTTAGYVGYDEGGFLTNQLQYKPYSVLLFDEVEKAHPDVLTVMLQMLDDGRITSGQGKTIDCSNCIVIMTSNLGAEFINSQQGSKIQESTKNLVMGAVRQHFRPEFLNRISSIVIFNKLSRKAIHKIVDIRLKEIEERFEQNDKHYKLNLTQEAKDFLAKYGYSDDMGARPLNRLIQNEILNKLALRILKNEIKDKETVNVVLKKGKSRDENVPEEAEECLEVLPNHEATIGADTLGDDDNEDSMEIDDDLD
From the text: (§2) One HSP104-specific Nanobody (04=CA18504 SEQ ID NO:40), one MET6-specific Nanobody (05=CA18505 SEQ ID NO:41), two SBA1-specific Nanobodies (08=Nb clone CA18508 corresponding to SEQ ID NO:42, 09=CA18509-SEQ ID NO:43), one SOD1-specific Nanobody (10=CA18510-SEQ ID NO:44), and a ENO1-specific Nanobody (38=CA17938-SEQ ID NO:45), were characterized by co-immunoprecipitation assays. Each POI-specific Nanobodies was covalently linked to NHS-agarose beads. The beads that were functionalized with these POI-specific Nanobodies were incubated for an hour at 4° C. on a rotating device with the lysate of the engineered Yeast strain expressing the POIs (Yeast GFP fusion collection reference: GFP(+)05, A2 (HSP104); GFP(+)07, D4 (MET6); GFP(+)30, A6 (SBA1); GFP(+)33, F8 (SOD1) and GFP(+)17, D12 (ENO1) as a GFP-tagged protein. After washing, these beads were analyzed on SDS-PAGE (not shown) and Western blot was developed with GFP-specific antibody to confirm the presence of GFP-tagged POIs.

[4] = molecular target: T4, GFP-tagged SBA1 (Saccharomyces cerevisiae, UniProt P28707 2-216); experiment: as above
T4 construct: Yeast GFP Fusion Collection strain; also called Yeast GFP fusion collection GFP(+)30, A6; YKL117W; not shown: GFP tag
T4 sequence (looked up): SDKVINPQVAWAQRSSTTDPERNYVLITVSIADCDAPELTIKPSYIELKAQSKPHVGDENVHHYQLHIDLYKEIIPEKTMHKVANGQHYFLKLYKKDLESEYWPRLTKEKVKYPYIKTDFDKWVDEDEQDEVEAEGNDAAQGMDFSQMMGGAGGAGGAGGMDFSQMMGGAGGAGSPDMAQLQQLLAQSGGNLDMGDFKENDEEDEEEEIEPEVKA
From the text: as §2

[5] = molecular target: T5, BMH1 (native, from EBY100 lysate) (Saccharomyces cerevisiae, UniProt P29311 2-267); experiment: co-IP, Nb on NHS-agarose beads, EBY100 yeast lysate, SDS-PAGE
T5 construct: mature; Endogenous untagged protein; also called YER177W
T5 sequence (looked up): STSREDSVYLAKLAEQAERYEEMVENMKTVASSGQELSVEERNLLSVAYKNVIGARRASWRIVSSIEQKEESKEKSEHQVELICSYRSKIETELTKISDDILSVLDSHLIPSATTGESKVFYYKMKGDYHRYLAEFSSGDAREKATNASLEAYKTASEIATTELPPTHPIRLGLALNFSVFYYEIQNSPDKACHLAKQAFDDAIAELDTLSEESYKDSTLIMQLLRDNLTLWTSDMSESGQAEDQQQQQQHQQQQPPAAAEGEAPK

[6] = molecular target: T6, GFP-tagged BMH1 (Saccharomyces cerevisiae, UniProt P29311 2-267); experiment: co-immunoprecipitation, Nb coupled to NHS-agarose beads, lysate of the yeast strain expressing the GFP-tagged target, Western blot anti-GFP
T6 construct: Yeast GFP Fusion Collection strain; also called Yeast GFP fusion collection GFP(+)27, D5; not shown: GFP tag
T6 sequence (looked up): T5 sequence (looked up)
Procedure: One SIS1-specific Nanobody (44=Nb clone CA17444 corresponding to SEQ ID NO: 9), three ALD6-specific Nanobodies (53=CA17453-SEQ ID NO: 10, 54=CA17454-SEQ ID NO: 11, 60=CA17460-SEQ ID NO: 12), two BMH1-specific Nanobodies (58=CA17458-SEQ ID NO: 13, 59=CA17459-SEQ ID NO: 14) were characterized by co-immunoprecipitation assays. Each target-specific Nanobodies was covalently linked to NHS-agarose beads. The beads that were functionalized with these target-specific Nanobodies were incubated for an hour at 4° C. on a rotating device with either an EBY100 lysate or the lysate of the engineered Yeast strain expressing the target (Yeast GFP fusion collection reference for SIS1: GFP(+)22, E5, for ALD6: GFP(+)15, F1, for BMH1: GFP(+)27, D5) as a GFP-tagged protein. After washing, these beads were resuspended in SDS-PAGE loading dye and analyzed on SDS-PAGE (FIG. 8A). Separated proteins were transferred to a PVDF membrane and the Western blot (FIG. 8B) was developed with GFP-specific antibody to confirm the presence of GFP-tagged targets.

[7] = molecular target: T7, GFP-tagged ENO1 (Saccharomyces cerevisiae, UniProt P00924 2-437); experiment: as above
T7 construct: Yeast GFP Fusion Collection strain; also called Yeast GFP fusion collection GFP(+)17, D12; YGR254W; not shown: GFP tag
T7 sequence (P00924 2-437): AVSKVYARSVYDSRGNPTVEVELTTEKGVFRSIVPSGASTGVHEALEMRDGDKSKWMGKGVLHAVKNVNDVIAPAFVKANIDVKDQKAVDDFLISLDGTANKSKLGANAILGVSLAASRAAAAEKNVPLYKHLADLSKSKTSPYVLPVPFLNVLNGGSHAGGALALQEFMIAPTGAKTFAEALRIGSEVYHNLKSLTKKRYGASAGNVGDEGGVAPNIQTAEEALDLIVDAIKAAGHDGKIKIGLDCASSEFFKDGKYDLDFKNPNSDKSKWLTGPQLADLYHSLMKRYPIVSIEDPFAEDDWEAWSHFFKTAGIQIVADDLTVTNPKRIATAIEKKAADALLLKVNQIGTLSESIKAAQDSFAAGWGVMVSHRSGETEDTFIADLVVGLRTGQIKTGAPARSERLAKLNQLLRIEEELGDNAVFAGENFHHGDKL
From the text: as §2

[8] = molecular target: T8, GFP-tagged SOD1 (Saccharomyces cerevisiae, UniProt P00445 2-154); experiment: as above
T8 construct: Yeast GFP Fusion Collection strain; also called Yeast GFP fusion collection GFP(+)33, F8; YJR104C; not shown: GFP tag
T8 sequence (looked up): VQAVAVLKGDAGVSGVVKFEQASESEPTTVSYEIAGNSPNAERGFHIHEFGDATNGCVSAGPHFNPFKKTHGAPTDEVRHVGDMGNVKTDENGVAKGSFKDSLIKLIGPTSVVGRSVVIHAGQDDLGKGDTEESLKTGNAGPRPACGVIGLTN
From the text: as §2

[9] = molecular target: T9, GFP protein (Aequorea victoria (Water jellyfish) …, UniProt P42212 1-238 = GFP, biotinylated with the EZ-Link sulfo-NHS-LC-biotinylation kit for the BLI assay; unmodified in the NANEX selections); experiment: method not stated
T9 construct: Purified GFP; also called wild type GFP; biotinylated GFP

[10] = molecular target: T10, GFP-tagged MET6 (Saccharomyces cerevisiae, UniProt P05694 2-767); experiment: co-immunoprecipitation, Nb coupled to NHS-agarose beads, lysate of the yeast strain expressing the GFP-tagged target, Western blot anti-GFP
T10 construct: Yeast GFP Fusion Collection strain; also called Yeast GFP fusion collection GFP(+)07, D4; YER091C; not shown: GFP tag
T10 sequence (looked up): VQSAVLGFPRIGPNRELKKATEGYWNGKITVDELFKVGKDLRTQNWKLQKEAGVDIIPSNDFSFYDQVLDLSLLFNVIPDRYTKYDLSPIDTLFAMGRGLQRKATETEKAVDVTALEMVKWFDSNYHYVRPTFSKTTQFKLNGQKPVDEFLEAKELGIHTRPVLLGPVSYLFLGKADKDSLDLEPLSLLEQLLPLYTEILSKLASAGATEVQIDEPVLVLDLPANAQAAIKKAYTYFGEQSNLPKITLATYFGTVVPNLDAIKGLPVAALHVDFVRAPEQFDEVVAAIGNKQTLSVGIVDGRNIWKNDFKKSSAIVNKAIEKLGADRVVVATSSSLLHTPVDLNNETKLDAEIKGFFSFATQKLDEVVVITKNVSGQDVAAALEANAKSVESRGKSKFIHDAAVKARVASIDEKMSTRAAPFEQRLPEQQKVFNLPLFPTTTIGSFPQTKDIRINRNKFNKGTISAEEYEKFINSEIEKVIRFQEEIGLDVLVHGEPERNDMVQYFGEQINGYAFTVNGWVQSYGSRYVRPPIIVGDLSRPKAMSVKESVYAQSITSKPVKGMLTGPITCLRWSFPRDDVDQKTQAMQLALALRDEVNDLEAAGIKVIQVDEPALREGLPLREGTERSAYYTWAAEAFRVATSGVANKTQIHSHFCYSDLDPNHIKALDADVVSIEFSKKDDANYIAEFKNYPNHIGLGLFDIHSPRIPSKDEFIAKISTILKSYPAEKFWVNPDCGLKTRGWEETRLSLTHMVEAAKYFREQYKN
From the text: as §2

T1 sequence (P10591 2-642): as the sequence (P10591 2-642) above

B1: CA17560 (VHH)
VHH: QVQLVESGGGLVHSGGSLRLSCVASGGAFNDYTMGWFRQAPGKERQFVAAITWSSGVTSYSDSVRGRFVISRDIAKNTVYLQMNSLNPEETAVYVCAARLGVSSSPNSQISHRYDYWGQGTQVTVSS
notes: C-terminal 6xHis-EPEA tag is part of the entry
[1]
  binding result: binds
[2]
  binding result: binds

B2: CA18504 (VHH)
VHH: QVQLVESGGGLVQPGGSLTLSCAGSGRAFDSIAMGWFRQAPGKEREFVAAISWNGVSAYYADSVKGRFTISRDNAKNTVHLQMNSLQSDDTAVYYCHADNSWGQGTQVTVSS
notes: as for B1
[3]
  binding result: binds

B3: CA18508 (VHH)
VHH: QVQLVESGGGLVQPGGSLRLSCAASGFTFSNTAMSWYRQAPGKERELVAVSTSAGGGTDYADSVQGRFTISRDNAKNTVYLQMNDLKPEDTAVYYCYAVGRYRSSWRLLPFGSWGQGTQVTVSS
notes: as for B1
[4]
  binding result: binds

B4: CA17458 (VHH)
VHH: QVQLVESGGGLVQPGGSLRLSCAASGTTLSLRRVGWYRQAPGKQRDLVATLTSGGETSYADSVKGRFTISRDNAKNTVYLQMNSLKLEDTAVYYCNAINWPMDYWGQGTQVTVSS
notes: as for B1
[5]
  binding result: binds
[6]
  binding result: binds

B5: CA17938 (VHH)
VHH: QVQLVESGGGLVQPGGSLRLSCAASGFTLDTWAIGWFRQVPGKDREGAACISSEPSSTYYGEFVNGRFTISRDSAKSTVYLQMNDLKPEDTAVYYCSADRLSAYCSGSGGWGQGTQVTVSS
notes: as for B1
[7]
  binding result: binds

B6: CA18510 (VHH)
VHH: QVQLVESGGGLVEAGGSLRLSCAASGRTFSSYAMGWFRQAPGKEREFVAAISWSGGSTYYADSVKGRFTISRDNAKNTVYLQMNSLKPEDTAVYYCAAPTAYHYSTTRDEYDSWGQGTQVTVSS
notes: as for B1
[8]
  binding result: binds

B7: CA15816 (VHH)
VHH: QVQLVESGGGLVQAGGSLRLSCAASGRTFSTAAMGWFRQAPGKERDFVAGIYWAAGSTYYADSAKGRFTISRDNAKNTVYLQMDSLKPEDTAVYYCAARRRGFTLAPTRANEYDYWGQGTQVTVSS
notes: C-terminal 6xHis-EPEA tag is part of the entry, which already carries T54A/V55A; also called GFP trapper; GFP-specific trapper
[9]
  Kd: 2.7 nM

B8: CA18509 (VHH)
VHH: QVQLVESGGGLVQPGGSLRLSCAAAGFTFRMLDMSWYRQAPGKERELVATITSVSGTTNYADSVKGRVTISRDNAKNTVYLQMNSLKPEDTAVYYCNARMAAWGLDYWGQGTQVTVSS
notes: as for B1
[4]
  binding result: binds

B9: CA18505 (VHH)
VHH: QVQLVESGGGLVQPGGSLRLSCAASGSIFSINAWGWYRQAPGKERELVAVITSVGGRTNYADSVKGRFTISRDNAKDMVYLQMNSLKPEDTAVYYCNSRGSSWYFGTPQDYWGQGTQVTVSS
notes: as for B1
[10]
  binding result: binds
